Data reported in patent publication US20150050301A1, “Contiguous Overlapping Peptides for Treatment of House Dust Mites Allergy” (ANERGIS S.A., priority 2013, published 2015).

B1: Der p 1: purified natural Der p 1 house dust mite major allergen from Indoor Biotechnologies Ltd (protein)
chain: TNACSINGNAPAEIDLRQMRTVTPIRMQGGCGSCWAFSGVAATESAYLAYRNQSLDLAEQELVDCASQHGCHGDTIPRGIEYIQHNGVVQESYYRYVAREQSCRRPNAQRFGISNYCQIYPPNVNKIREALAQTHSAIAVIIGIKDLDAFRHYDGRTIIQRDNGYQPNYHAVNIVGYSNAQGVDYWIVRNSWDTNWGDNGYGYFAANIDLMMIEEYPYVVIL
B2: Der p 2: purified natural Der p 2 house dust mite major allergen from Indoor Biotechnologies Ltd (protein)
chain: DQVDVKDCANHEIKKVLVPGCHGSEPCIIHRGKPFQLEALFEANQNSKTAKIEIKASIDGLEVDVPGIDPNACHYMKCPLVKGQQYDIKYTWNVPKIAPKSENVVVTVKVLGDNGVLACAIATHAKIRD

Legend:
[1] = system: IgE of sera of house dust mite allergic patients binding to nDer p 2; experiment: Competition ELISA on Der p 2 coated plates; design: species or system human
Method: (§1) Purified Der p 1 or Der p 2 at 1.0 μg/ml were coated overnight on 96-well Nunc Maxisorp® immunoplates (Thermo Fisher Scientific Inc., Wohlen, Switzerland). After blocking with 1% BSA, either twenty-fold, thirty-fold or forty-fold up to 200-fold dilutions of patient serum were added depending on specific IgE content. […] Sera of allergic patients were obtained from US and Europe (PlasmaLab International, Everett, Wash., USA and Biomnis, Lyon, France) respectively) selected for positive CAP for D. pteronyssinus and clear signal over background and used to test for competition with the peptides. Serial dilutions of each set of COPs, namely for Der p 1 Set A, B, C or D and for Der p 2 mixes D, E or F at concentrations ranging from 10^−5 to 10^−10 M were pre-incubated with selected serums for 15 min. on ice.

IgE = experiment: Direct ELISA of Der p 2 COPs; type: binding, human
[2] = Solubility Characteristics of COPs; type: physicochemical
Method: All COPs were synthesized by solid phase fmoc chemistry at research scale to allow determination of IgE binding. […] Peptides were resuspended either in water at 2 mg/ml or at 10 to 20 mg per ml in DMSO (see Table 1) and frozen in aliquots.

[3] = system: IgE of sera of house dust mite allergic patients binding to nDer p 1; experiment: Competition ELISA on Der p 1 coated plates; design: species or system human; conditions: panel of 21 sera
Method: as §1

[4] = system: RBL-703/21 cells transfected with human Fc epsilon RI receptor, sensitized with sera from patients with house dust mite allergy; experiment: RBL degranulation; type: cell-based; conditions: RBL cells pre-loaded with 18 human serums; AllerDM up to 10^−5M
Method: Degranulation assay was performed as described in [37]. RBL-703/21 cells transfected with human Fc epsilon RI receptor were plated in 96-well tissue culture plates (10^5 cells/well) overnight. Passive sensitization of RBL-703/21 cells was carried out with sera from patients with house dust mite allergy at 1:20 overnight. Unbound antibodies were removed by washing the cell layer twice in Hanks' balanced salt solution (Gibco, Life technologies) the next day. Degranulation of RBL cells was induced for 1 h at 37° C. by adding nDer p1, nDer p 2 or individual COPs and mixes at indicated concentrations diluted in Tyrode's buffer (130 mM NaCl, 5 mM KCl, 1.4 mM CaCl2, 1 mM MgCl2, 5.6 mM glucose, 10 mM HEPES pH7.4, 0.1% BSA). β-hexosaminidase activity was analyzed by incubating 30 μl of cell supernatant with 50 μl of 1.3 mg/ml 4-Nitrophenyl N-acetyl-β-D-glucosaminide (Sigma) in citrate buffer (0.1M, pH 4.5) for 1 h at 37° C. The reaction was stopped by addition of 100 μl glycine buffer (0.2M glycine, 0.2M NaCl, pH 10.7) and optical densities (OD) were measured at 405 nm.

Molecule	effect of denaturing salts on IgE binding (Der p 2 competition ELISA) ([1]; denaturing salts incl. guanidinium chloride or urea, 30 min pre-incubation with 1M guanidinium chloride)	IgE binding in direct ELISA (IgE)	Conc. [2]	concentration range of competition (Der p 1 control) [3]	basophil degranulation of RBL cells, serum panel [4]	concentration range of competition (Der p 2 control) ([1]; panel of 21 sera)
SIDGLEVDVPGIDPNACHYMKCPLVKGQQYDIKYTWNVPKIAPKSENVVVTVKVMGDDGVLACAIATHAKIRD [AllerDM2.2]	strongly diminished IgE binding	found to bind IgE	1700 µg/mL	–	–	–
B1	–	–	–	10^−7 to 10^−9 M	able to induce degranulation	–
B2	–	–	–	–	able to induce degranulation	10^−7 to 10^−9 M
